Where two headings read alike, the source gives them in different places.
B1: RBM47: host protein, UniProt A0AV96 (protein, UniProt A0AV96 1-593, looked up)
RNA-binding protein 47: MTAEDSTAAMSSDSAAGSSAKVPEGVAGAPNEAALLALMERTGYSMVQENGQRKYGGPPPGWEGPHPQRGCEVFVGKIPRDVYEDELVPVFEAVGRIYELRLMMDFDGKNRGYAFVMYCHKHEAKRAVRELNNYEIRPGRLLGVCCSVDNCRLFIGGIPKMKKREEILEEIAKVTEGVLDVIVYASAADKMKNRGFAFVEYESHRAAAMARRKLMPGRIQLWGHQIAVDWAEPEIDVDEDVMETVKILYVRNLMIETTEDTIKKSFGQFNPGCVERVKKIRDYAFVHFTSREDAVHAMNNLNGTELEGSCLEVTLAKPVDKEQYSRYQKAARGGGAAEAAQQPSYVYSCDPYTLAYYGYPYNALIGPNRDYFVKAGSIRGRGRGAAGNRAPGPRGSYLGGYSAGRGIYSRYHEGKGKQQEKGYELVPNLEIPTVNPVAIKPGTVAIPAIGAQYSMFPAAPAPKMIEDGKIHTVEHMISPIAVQPDPASAAAAAAAAAAAAAAVIPTVSTPPPFQGRPITPVYTVAPNVQRIPTAGIYGASYVPFAAPATATIATLQKNAAAAAAMYGGYAGYIPQAFPAAAIQVPIPDVYQTY
B2: HNRNPH1 (protein, UniProt P31943 1-449, looked up)
Heterogeneous nuclear …: MMLGTEGGEGFVVKVRGLPWSCSADEVQRFFSDCKIQNGAQGIRFIYTREGRPSGEAFVELESEDEVKLALKKDRETMGHRYVEVFKSNNVEMDWVLKHTGPNSPDTANDGFVRLRGLPFGCSKEEIVQFFSGLEIVPNGITLPVDFQGRSTGEAFVQFASQEIAEKALKKHKERIGHRYIEIFKSSRAEVRTHYDPPRKLMAMQRPGPYDRPGAGRGYNSIGRGAGFERMRRGAYGGGYGGYDDYNGYNDGYGFGSDRFGRDLNYCFSGMSDHRYGDGGSTFQSTTGHCVHMRGLPYRATENDIYNFFSPLNPVRVHIEIGPDGRVTGEADVEFATHEDAVAAMSKDKANMQHRYVELFLNSTAGASGGAYEHRYVELFLNSTAGASGGAYGSQMMGGMGLSNQSSYGGPASQQLSGGYGGGYGGQSSMSGYDQVLQENSSDFQSNIA
B3: CIRBP: host protein, UniProt Q14011 (protein, UniProt Q14011 1-172, looked up)
Cold-inducible RNA-binding …: MASDEGKLFVGGLSFDTNEQSLEQVFSKYGQISEVVVVKDRETQRSRGFGFVTFENIDDAKDAMMAMNGKSVDGRQIRVDQAGKSSDNRSRGYRGGSAGGRGFFRGGRGRGRGFSRGGGDRGYGGNRFESRSGGYGGSRDYYSSRSQSGGYSDRSSGGSYRDSYDSYATHNE
B4: TRA2B: host protein, UniProt P62995 (protein, UniProt P62995 2-288, looked up)
Transformer-2 protein homolog …: SDSGEQNYGERESRSASRSGSAHGSGKSARHTPARSRSKEDSRRSRSKSRSRSESRSRSRRSSRRHYTRSRSRSRSHRRSRSRSYSRDYRRRHSHSHSPMSTRRRHVGNRANPDPNCCLGVFGLSLYTTERDLREVFSKYGPIADVSIVYDQQSRRSRGFAFVYFENVDDAKEAKERANGMELDGRRIRVDFSITKRPHTPTPGIYMGRPTYGSSRRRDYYDRGYDRGYDDRDYYSRSYRGGGGGGGGWRAAQDRDQIYRRRSPSPYYSRGGYRSRSRSRSYSPRRY
B5: DAZAP1: host protein, UniProt Q96EP5 (protein, UniProt Q96EP5 1-407, looked up)
DAZ-associated protein 1: MNNSGADEIGKLFVGGLDWSTTQETLRSYFSQYGEVVDCVIMKDKTTNQSRGFGFVKFKDPNCVGTVLASRPHTLDGRNIDPKPCTPRGMQPERTRPKEGWQKGPRSDNSKSNKIFVGGIPHNCGETELREYFKKFGVVTEVVMIYDAEKQRPRGFGFITFEDEQSVDQAVNMHFHDIMGKKVEVKRAEPRDSKSQAPGQPGASQWGSRVVPNAANGWAGQPPPTWQQGYGPQGMWVPAGQAIGGYGPPPAGRGAPPPPPPFTSYIVSTPPGGFPPPQGFPQGYGAPPQFSFGYGPPPPPPDQFAPPGVPPPPATPGAAPLAFPPPPSQAAPDMSKPPTAQPDFPYGQYAGYGQDLSGFGQGFSDPSQQPPSYGGPSVPGSGGPPAGGSGFGRGQNHNVQGFHPYRR
B6: HNRNPA0 (protein, UniProt Q13151 1-305, looked up)
Heterogeneous nuclear …: MENSQLCKLFIGGLNVQTSESGLRGHFEAFGTLTDCVVVVNPQTKRSRCFGFVTYSNVEEADAAMAASPHAVDGNTVELKRAVSREDSARPGAHAKVKKLFVGGLKGDVAEGDLIEHFSQFGTVEKAEIIADKQSGKKRGFGFVYFQNHDAADKAAVVKFHPIQGHRVEVKKAVPKEDIYSGGGGGGSRSSRGGRGGRGRGGGRDQNGLSKGGGGGYNSYGGYGGGGGGGYNAYGGGGGGSSYGGSDYGNGFGGFGSYSQHQSSYGPMKSGGGGGGGGSSWGGRSNSGPYRGGYGGGGGYGGSSF

What was measured:
Format in all cases: binding
gRNA of HCoV-OC43 = conditions: for target (spectral count) / background (spectral count): type g_36_m, 36 hpi, Probe I; for target (spectral count): HCoV-OC43-infected HCT-8 cells; for background (spectral count): uninfected-probe control; for target (spectral count, OC43 Probe I RNP capture) / background (spectral count, no-probe control): type n_48_v: 48 hours post-infection; for target (spectral count, OC43 Probe I RNP capture): infected cells, unweighted spectral count; for background (spectral count, no-probe control): no-probe control on infected cells
[1] = tested on: SARS-CoV-2 gRNA and sgRNAs; conditions: for background (unweighted spectral count in control): no-probe control pull-down, used as background for Probe II; for target (unweighted spectral count in RNP capture): Probe II capture, LC-MS/MS LFQ
HCoV-OC43 gRNA and sgRNA = conditions: for target (unweighted spectral count, OC43 Probe II capture) / target (spectral count) / background (spectral count): 36 hpi; for target (unweighted spectral count, OC43 Probe II capture): type n_36_v, FDR<10%; for target (unweighted spectral count, OC43 Probe II capture) / target (unweighted spectral count): tested against no-probe control; for target (unweighted spectral count): OC43 Probe II, infected cells; for target (unweighted spectral count, OC43 Probe II) / background (unweighted spectral count, no-probe control): type n_48_v, 48 hpi; for target (unweighted spectral count, OC43 Probe II): OC43 Probe II capture on infected cells; for background (unweighted spectral count, no-probe control): no-probe control on infected cells; for target (spectral count) / background (spectral count): type s_36_m, Probe II; for target (spectral count): HCoV-OC43-infected HCT-8 cells; for background (spectral count): uninfected-probe control
SARS-CoV-2 gRNA = conditions: […]; LC-MS/MS; Probe I sample (first 199 lines of Table 2)

Molecule | target (spectral count) (gRNA of HCoV-OC43) | background (spectral count) (gRNA of HCoV-OC43) | target (spectral count, OC43 Probe I RNP capture) (gRNA of HCoV-OC43) | background (spectral count, no-probe control) (gRNA of HCoV-OC43) | background (unweighted spectral count in control) [1] | target (unweighted spectral count, OC43 Probe II capture) (HCoV-OC43 gRNA and sgRNA) | target (unweighted spectral count) (HCoV-OC43 gRNA and sgRNA; 12 hpi (type n_12_v)) | target (unweighted spectral count, OC43 Probe II) (HCoV-OC43 gRNA and sgRNA) | background (unweighted spectral count, no-probe control) (HCoV-OC43 gRNA and sgRNA) | target (spectral count) (HCoV-OC43 gRNA and sgRNA) | background (spectral count) (HCoV-OC43 gRNA and sgRNA) | target (unweighted spectral count of the protein in the RNP capture) (SARS-CoV-2 gRNA) | target (unweighted spectral count in RNP capture) [1] | target (unweighted spectral count) (HCoV-OC43 gRNA and sgRNA; 24 hpi (type n_24_v))
B1 | 28 | 5 | 26 | 2 | 1 | 31 | 10 | 27 | 2 | 31 | 6 | 12 | – | –
B2 | – | – | 49 | 6 | 1 | 36 | 15 | 53 | 6 | – | – | 78 | 61 | –
B3 | – | – | 9 | 1 | 1 | – | – | 12 | 1 | 13 | 2 | 12 | 15 | 7
B4 | – | – | 10 | 2 | 1 | 15 | 5 | 12 | 2 | 15 | 2 | 13 | 8 | –
B5 | 11 | 1 | 18 | 1 | 1 | 13 | – | 22 | 1 | 13 | 2 | 13 | 11 | 7
B6 | – | – | 12 | 2 | 1 | 12 | – | 13 | 2 | – | – | 12 | 9 | –

— patent publication US20230407373A1 (priority 2020, published 2023)
